{"source": "patent US8632989B1", "about": "“Mutant insulin degrading enzyme and methods of use” (University of Kentucky Research Foundation, priority 2011, dated 2014)", "molecules": {"B1": {"name": "wild type rat IDE, Example 1 (protein)", "chain": "TMNNPAIQRIEDHIVKSPEDKREYRGLELANGIKVLLISDPTTDKSSAALDVHIGSLSDPPNIPGLSHFCFHMLFLGTKKYPKENEYSQFLSEHAGSSNAFTSGEHTNYYFDVSHEHLEGALDRFAQFFLCPLFDASCKDREVNAVDSEHEKNVMNDAWRLFQLEKATGNPKHPFSKFGTGNKYTLETRPNQEGIDVREELLKFHSTYYSSNLMAICVLGRESLDDLTNLVVKLFSEVENKNVPLPEFPEHPFQEEHLKQLYKIVPIKDIRNLYVTFPIPDLQQYYKSNPGHYLGHLIGHEGPGSLLSELKSKGWVNTLVGGQKEGARGFMFFIINVDLTEEGLLHVEDIILHMFQYIQKLRAEGPQEWVFQECKDLNAVAFRFKDKERPRGYTSKIAGKLHYYPLNGVLTAEYLLEEFRPDLIDMVLDKLRPENVRVAIVSKSFEGKTDRTEQWYGTQYKQEAIPEDVIQKWQNADLNGKFKLPTKNEFIPTNFEILALEKDATPYPALIKDTAMSKLWFKQDDKFFLPKACLNFEFFSPFAYVDPLHCNMAYLYLELLKDSLNEYAYAAELAGLSYDLQNTIYGMYLSVKGYNDKQPILLKKITEKMATFEIDKKRFEIIKEAYMRSLNNFRAEQPHQHAMYYLRLLMTEVAWTKDELKEALDDVTLPRLKAFIPQLLSRLHIEALLHGNITKQAALGVMQMVEDTLIEHAHTKPLLPSQLVRYREVQLPDRGWFVYQRRNEVHNNCGIEIYYQTDMQSTSENMFLELFCQIISEPCFNTLRTKEQLGYIVFSGPRRANGIQGLRFIIQSEKPPHYLESRVEAFLITMEKAIEDMTEEAFQKHIQALAIRRLDKPKKLSAECAKYWGEIISQQYNYDRDNIEVAYLKTLSKDDIIKFYKEMLAVDAPRRHKVSVHVLAREMDSCPVVGEFPSQNDINLSEAPPLPQPEVIHNMTEFKRGLPLFPLVKPHINFMAAKL"}, "B2": {"name": "IDE^R429S (protein)", "chain": "B1 chain with F71E, R389S"}, "B3": {"name": "IDE^K898A,K899A,S901A (protein)", "chain": "B1 chain with F71E, K858A, K859A, S861A"}, "B4": {"name": "wild type rat IDE (rIDE), Example 2 (protein)", "chain": "MNNPAIQRIEDHIVKSPEDKREYRGLELANGIKVLLISDPTTDKSSAALDVHIGSLSDPPNIPGLSHFCEHMLFLGTKKYPKENEYSQFLSEHAGSSNAFTSGEHTNYYFDVSHEHLEGALDRFAQFFLCPLFDASCKDREVNAVDSEHEKNVMNDAWRLFQLEKATGNPKHPFSKFGTGNKYTLETRPNQEGIDVREELLKFHSTYYSSNLMAICVLGRESLDDLTNLVVKLFSEVENKNVPLPEFPEHPFQEEHLKQLYKIVPIKDIRNLYVTFPIPDLQQYYKSNPGHYLGHLIGHEGPGSLLSELKSKGWVNTLVGGQKEGARGFMFFIINVDLTEEGLLHVEDIILHMFQYIQKLRAEGPQEWVFQECKDLNAVAFRFKDKERPRGYTSKIAGKLHYYPLNGVLTAEYLLEEFRPDLIDMVLDKLRPENVRVAIVSKSFEGKTDRTEQWYGTQYKQEAIPEDVIQKWQNADLNGKFKLPTKNEFIPTNFEILALEKDATPYPALIKDTAMSKLWFKQDDKFFLPKACLNFEFFSPFAYVDPLHCNMAYLYLELLKDSLNEYAYAAELAGLSYDLQNTIYGMYLSVKGYNDKQPILLKKITEKMATFEIDKKRFEIIKEAYMRSLNNFRAEQPHQHAMYYLRLLMTEVAWTKDELKEALDDVTLPRLKAFIPQLLSRLHIEALLHGNITKQAALGVMQMVEDTLIEHAHTKPLLPSQLVRYREVQLPDRGWFVYQRRNEVHNNCGIEIYYQTDMQSTSENMFLELFCQIISEPCFNTLRTKEQLGYIVFSGPRRANGIQGLRFIIQSEKPPHYLESRVEAFLITMEKAIEDMTEEAFQKHIQALAIRRLDKPKKLSAECAKYWGEIISQQYNYDRDNIEVAYLKTLSKDDIIKFYKEMLAVDAPRRHKVSVHVLAREMDSCPVVGEFPSQNDINLSEAPPLPQPEVIHNMTEFKRGLPLFPLVKPHINFMAAKL"}, "B5": {"name": "rIDE-E111F (protein)", "chain": "B4 chain with E70F"}, "B6": {"name": "rIDE-Y609F (protein)", "chain": "B4 chain with Y568F"}}, "key": {"Abz-GGFLRKHGQ-EDDnp [1]": {"molecular_target": "T1, Abz-GGFLRKHGQ-EDDnp", "T1 chain": "GGFLRKHGQ"}, "Abz-GGFLRKHGQ-EDDnp [2]": {"system": "Abz-GGFLRKHGQ-EDDnp", "assay": "Enzyme activity assay, kinetics of wild type rIDE and distal site mutants with fluorogenic substrate", "format": "biochemical", "details": "Abz-GGFLRKHGQ-EDDnp substrate", "method": "FIG. 17. Effects of distal site mutations. (A) Comparison of the kinetics of wild type IDE with the distal site mutants. Activity was measured with varying amounts of Abz-[…]-EDDnp (SEQ ID NO:3) substrate as indicated. Either hyperbolic (Michaelis-Menten equation) or sigmoidal curves (Hill equation) were fit to the data. (B) Effect of bradykinin on the activity of wild type IDE and the distal site mutants. (C) Activation of wild type IDE and distal site mutants by ATP. Relative activity is the fold activation above the level of the wild type enzyme alone.\nThe activity of IDE was measured by following the increase in fluorescence upon hydrolysis at the L-R bond of the fluorogenic peptide Abz-[…]-EDDnp (SEQ ID NO:3) on a SpectraMax Gemini XS fluorescence plate reader using an excitation wavelength of 318 nm and emission wavelength of 419 nm. Reactions were carried out in 200 μl volumes containing 50 mM Tris-HCl, pH 7.4, 1.92 μg of wild type rIDE, 4.6 μg of rIDE-V360S, 4.3 μg rIDE-I374S, or 1.63 μg of rIDE-Y609F. For measurements of activation by bradykinin, IDE activity was determined with 10 μM Abz-[…]-EDDnp (SEQ ID NO:3) as substrate in 50 mM Tris-HCl buffer, pH 7.4. The amount of protein was 0.5 μg for wild type rIDE and 5 μg for each of the IDE distal-site mutants. Data were analyzed using Softmax 4.0 (Molecular Devices) and kinetic parameters calculated with Prism (Graphpad Software). […] Under these assay conditions, both wild type and mutant rIDE are almost completely dimeric."}}, "note": "Numbering of substitutions follows the chain as printed. Names may count otherwise. Where two headings read alike, the source gives them in different places.", "data": [{"molecule": "B1", "values": [{"measurement": "Hill coefficient", "setting": "Abz-GGFLRKHGQ-EDDnp [1]", "value": 2.1}, {"measurement": "Vmax", "setting": "Abz-GGFLRKHGQ-EDDnp [1]", "value": 47.2, "unit": "nmol/min/mg"}, {"measurement": "kcat", "setting": "Abz-GGFLRKHGQ-EDDnp [1]", "value": 0.0867, "unit": "s⁻¹"}]}, {"molecule": "B2", "values": [{"measurement": "Hill coefficient", "setting": "Abz-GGFLRKHGQ-EDDnp [1]", "value": 1.7}, {"measurement": "Vmax", "setting": "Abz-GGFLRKHGQ-EDDnp [1]", "value": 42.3, "unit": "nmol/min/mg"}, {"measurement": "kcat", "setting": "Abz-GGFLRKHGQ-EDDnp [1]", "value": 0.0783, "unit": "s⁻¹"}]}, {"molecule": "B3", "values": [{"measurement": "Hill coefficient", "setting": "Abz-GGFLRKHGQ-EDDnp [1]", "value": 1.7}, {"measurement": "Vmax", "setting": "Abz-GGFLRKHGQ-EDDnp [1]", "value": 141, "unit": "nmol/min/mg"}, {"measurement": "kcat", "setting": "Abz-GGFLRKHGQ-EDDnp [1]", "value": 0.258, "unit": "s⁻¹"}, {"measurement": "effect of bradykinin on the rate of Abz-GGFLRKHGQ-EDDnp hydrolysis", "setting": "bradykinin, P01042", "value": "the observed rate for IDE^K898A,K899A,S901A was significantly reduced"}]}, {"molecule": "B4", "values": [{"measurement": "Hill coefficient", "setting": "Abz-GGFLRKHGQ-EDDnp [1]", "value": 1.8}, {"measurement": "Km", "setting": "Abz-GGFLRKHGQ-EDDnp [1]", "value": 15.9, "unit": "µM"}, {"measurement": "Specific activity", "setting": "Abz-GGFLRKHGQ-EDDnp [1]", "value": "8,131 nmol/min/mg for the wild type enzyme"}, {"measurement": "Vmax", "setting": "Abz-GGFLRKHGQ-EDDnp [1]", "value": 35.5, "unit": "nmol/min/mg"}, {"measurement": "Heterotropic activation of Abz-GGFLRKHGQ-EDDnp hydrolysis", "setting": "bradykinin, P01042", "value": "approximately 4-fold for the wild type enzyme"}]}, {"molecule": "B5", "values": [{"measurement": "Specific activity", "setting": "Abz-GGFLRKHGQ-EDDnp [1]", "value": "5.2 nmol/min/mg for the E111F mutant"}, {"measurement": "Specific activity", "setting": "Abz-GGFLRKHGQ-EDDnp [2]", "value": 5.2, "unit": "nmol/min/mg"}]}, {"molecule": "B6", "values": [{"measurement": "Hill coefficient", "setting": "Abz-GGFLRKHGQ-EDDnp [1]", "value": 1.04}, {"measurement": "Km", "setting": "Abz-GGFLRKHGQ-EDDnp [1]", "value": 6.86, "unit": "µM"}, {"measurement": "Vmax", "setting": "Abz-GGFLRKHGQ-EDDnp [1]", "value": 2.6, "unit": "nmol/min/mg"}, {"measurement": "Heterotropic activation of Abz-GGFLRKHGQ-EDDnp hydrolysis", "setting": "bradykinin, P01042", "value": "is also lost in all three mutants"}]}]}
